Experimental data as given in patent publication US20250361295A1 (ANTENGENE BIOLOGICS, published 2025).

Key:
[1] = target: T1, human LILRA6 protein (human, UniProt Q6PI73 24-447, limits assumed); test: ELISA, LILRA6 protein
T1 construct: protein for ELISA; construct not described; also called hLILRA6 protein

[2] = target: T2, human LILRB4 (human, UniProt Q8NHJ6 22-448); test: cell-based or functional assay
[3] = target: T2, human LILRB4; test: cell-based or functional assay; remark: listed apart in the source
[4] = target: T2, human LILRB4; test: cell-based or functional assay; remark: listed apart in the source
[5] = target: T3, human LILRB3 (human, UniProt O75022 24-631); test: FACS, 293F-hLILRB3 cells
T3 construct: whole, on cells; also called hLILRB3
T3 sequence (O75022 24-631): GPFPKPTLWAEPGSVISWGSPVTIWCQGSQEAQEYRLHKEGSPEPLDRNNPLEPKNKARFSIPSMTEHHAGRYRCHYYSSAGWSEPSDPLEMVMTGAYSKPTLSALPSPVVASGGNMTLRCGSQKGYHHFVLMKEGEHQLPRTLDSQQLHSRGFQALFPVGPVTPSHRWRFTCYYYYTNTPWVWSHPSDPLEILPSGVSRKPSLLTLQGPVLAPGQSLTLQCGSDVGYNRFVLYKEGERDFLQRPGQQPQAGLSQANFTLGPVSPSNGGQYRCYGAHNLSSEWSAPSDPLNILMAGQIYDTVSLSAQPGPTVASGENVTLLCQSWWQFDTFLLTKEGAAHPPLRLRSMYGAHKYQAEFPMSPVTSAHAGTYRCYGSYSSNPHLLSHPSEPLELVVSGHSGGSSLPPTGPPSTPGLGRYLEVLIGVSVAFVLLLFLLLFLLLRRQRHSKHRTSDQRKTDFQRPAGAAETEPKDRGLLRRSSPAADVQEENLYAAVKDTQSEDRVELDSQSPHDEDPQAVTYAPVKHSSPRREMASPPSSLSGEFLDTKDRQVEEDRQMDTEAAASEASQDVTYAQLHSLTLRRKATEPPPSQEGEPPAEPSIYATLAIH
Description: (§1) The protocol for FACS analysis is described as follows: [0438] (a) Cells were harvested by centrifugation at 300 g for 3 mins. […] (b) The cells were washed for 2 times with FACS buffer by centrifuging at 300 g for 3 mins and the supernatant was discarded. [0440] (c) Cell were resuspended and seeded into assay plate (2×10⁵ cells/well) in 50 μl FACS buffer. […] Cells were incubated with antibodies at 4° C. for 1 hour. […] (d) Step (b) was repeated and the cells were resuspended with 100 μl diluted 2nd antibody, incubated at 4° C. for 1 hour in the dark. [0442] (e) Step (b) was repeated and the cells were resuspended with 100 μl FACS buffer. The cells were kept in dark for FACS analysis.

[6] = target: T2, human LILRB4; test: FACS, 293F-hLILRB4 cells
Description: as §1

[7] = target: T4, cynomolgus (Macaca fascicularis) LILRB4 (cynomolgus (Macaca fascicularis)); test: FACS, CHO-S-cynoLILRB4 cells
T4 construct: whole, on cells; also called cynoLILRB4; CHO-S-cynoLILRB4
Description: as §1

[8] = target: T2, human LILRB4; test: ELISA and FACS on 293F-hLILRB4 cells

T1 sequence (Q6PI73 24-447 limits assumed): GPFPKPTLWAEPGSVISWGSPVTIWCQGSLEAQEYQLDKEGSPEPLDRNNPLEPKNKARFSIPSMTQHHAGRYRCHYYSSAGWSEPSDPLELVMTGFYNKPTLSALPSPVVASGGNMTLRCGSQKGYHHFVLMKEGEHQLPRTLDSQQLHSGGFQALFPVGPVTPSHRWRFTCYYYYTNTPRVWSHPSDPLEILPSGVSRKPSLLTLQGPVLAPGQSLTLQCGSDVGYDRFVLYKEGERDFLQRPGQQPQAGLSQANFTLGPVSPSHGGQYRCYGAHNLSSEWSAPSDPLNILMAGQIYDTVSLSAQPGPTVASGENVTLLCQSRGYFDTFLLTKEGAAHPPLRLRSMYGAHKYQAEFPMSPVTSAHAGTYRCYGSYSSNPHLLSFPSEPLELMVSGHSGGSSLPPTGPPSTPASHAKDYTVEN

B1: ch44-F10-B6-D4 (antibody, V domains shown)
VH: EVHLVESGGGLVKPGGSLKLSCAASGFTFSSYAMSWVRQTPEKRLEWVATISSGGSYIYYPDSVKGRFTISRDNAKNTLYLQMSSLRSEDTAMYYCARQDWDGGDYYAMDYWGQGTSVTVSS
VL: DIVMTQSPSSLAVSAGEKVTMSCKSSQSVLYSSNQKNFLAWYQQKPGQSPKLLIYWASTRESGVPDRFTGSGSGTDFTLTISSVQAEDLAVYYCHQYLSSLTFGAGTKLELK
[1]
  binding result: no binding
[2]
  EC50 (nM), ADCC on THP-1 cells: 1.43 nM
  Max cell cytotoxicity (%), ADCC on THP-1 cells: 0.43%
[3]
  ADCP (%) at 133.3 nM, macrophages and MV-4-11 cells: 3.12%
[4]
  FcγR stimulation (TNF-α, pg/mL): 126 pg/mL
  Fold change (Compared to isotype): 3.97 fold
[5]
  binding result: no binding (tested: up to 66.67 nM)
[6]
  EC50: 0.57 nM
  Max MFI: 5470 MFI
[7]
  EC50: 103 nM

B2: ch25-G9-G4-C12 (antibody, V domains shown)
VH: EVQLVESGGDLVKPGGSLKLSCAASGFTFSSHGMSWVRQTPDKRLEWVATINSGGYYTYYPDSVKGRFTISRDNAKNTLYLQMSSLKSEDTAMYYCARGQLGNWYFDVWGAGTTVTVSS
VL: DIVMTQSPAIMSASPGEKVTITCSASSSVSYMHWFQQKPGTSPKLWIYSTSNLASGVPARFSGSGSGTSYSLTISRMEAEDAATYYCQQRSSYPLTFGAGTKLELK
[1]
  ELISA(OD450): 0.687 OD450
[2]
  Max cell cytotoxicity (%), ADCC on THP-1 cells: 11%
[3]
  ADCP (%) at 133.3 nM, macrophages and MV-4-11 cells: 24.2%
[4]
  FcγR stimulation (TNF-α, pg/mL): 356 pg/mL
  Fold change (Compared to isotype): 11.3 fold
[5]
  binding result: no binding (tested: up to 66.67 nM)
[6]
  EC50: 1.55 nM
  Max MFI: 43300 MFI

B3: IO-202 (antibody, V domains shown)
VH: EVQLLESGGGLVQPGGSLRLSCAASGIDFSNHYYMYWVRQAPGKGLEWIGSIFSGDSASTYYADSAKGRFTISRDNSKNTLYLQMNSLRAEDTAVYYCARGMSTNDWASDLWGQGTLVTVSS
VL: DIQMTQSPSSLSASVGDRVTITCQASESINSIYLAWYQQKPGKAPKLLIYRASTLASGVPSRFSGSGSGTDFTLTISSLQPEDFATYYCQQSYDWGDVENTFGGGTKVEIK
[1]
  ELISA(OD450): 0.157 OD450
[2]
  EC50 (nM), ADCC on THP-1 cells: 248 nM
  Max cell cytotoxicity (%), ADCC on THP-1 cells: 13.9%
[3]
  ADCP (%) at 133.3 nM, macrophages and MV-4-11 cells: 21.8%
[4]
  FcγR stimulation (TNF-α, pg/mL): 238 pg/mL
  Fold change (Compared to isotype): 7.52 fold
[5]
  binding result: no binding (tested: up to 66.67 nM)
[6]
  EC50: 0.016 nM
  Max MFI: 39700 MFI

B4: ch4-E6-E4-B12 (antibody, V domains shown)
VH: EVQLKESGAELVKPGASVKLSCKASGYTFTSHWMHWVKQRPGQGLEWIGEINPSNGRTNYNEKFTSKATLTVDQSSSTAYMQLSSLTSEDSAVYYCARGNLTTVVPFDYWGQGTALTVSS
VL: DIVMTQSPSSLSASLGGKVTITCKASQDINKFIAWYQHKPGKGPRLLIHFTSTLQPGIPSRFSGSGSGRDYSFSISNLEPEDIATYFCLQYDLLLTFGGGTKLEIK
[1]
  ELISA(OD450): 0.353 OD450
[2]
  Max cell cytotoxicity (%), ADCC on THP-1 cells: 14.6%
[3]
  ADCP (%) at 133.3 nM, macrophages and MV-4-11 cells: 14.1%
[4]
  FcγR stimulation (TNF-α, pg/mL): 266 pg/mL
  Fold change (Compared to isotype): 8.43 fold
[5]
  binding result: no binding (tested: up to 66.67 nM)
[6]
  EC50: 1.09 nM
  Max MFI: 54500 MFI

B5: ch2-H8-C9-F7-E2 (antibody, V domains shown)
VH: EVQLQQSGAELVKPGASVKLSCKASGYTFTNYWMHWVKQRPGQGLEWIGEINPSNGRTNYNEKFKSKATLTVDKSSSTAYMQLSSLTSEDSAVYYCARGSLTTVVPFDYWGQGTTLTVSS
VL: DIQMTQTPSSLSASLGGKVTITCKASQDINNYIAWYQHKPGKGPRLLIHYTSTLQPGIPSRFSGSGSGRDYSFSISNLEPEDIATYFCLQYDILLTFGGGTKLEK
[1]
  ELISA(OD450): 0.576 OD450
[2]
  EC50 (nM), ADCC on THP-1 cells: 1.38 nM
  Max cell cytotoxicity (%), ADCC on THP-1 cells: 31.1%
[3]
  ADCP (%) at 133.3 nM, macrophages and MV-4-11 cells: 9.35%
[4]
  FcγR stimulation (TNF-α, pg/mL): 310 pg/mL
  Fold change (Compared to isotype): 9.82 fold
[5]
  binding result: no binding (tested: up to 66.67 nM)
[6]
  EC50: 1.23 nM
  Max MFI: 41000 MFI

B6: ch36-F4-H1-D9 (antibody, V domains shown)
VH: EVKLLESGGGLVQPGGSLKLSCAASGFDFSRYWMIWVRQAPEKGLEWIGEINPDSSTINYTPSLKDKFIISRDNAKNTLYLQMSKVRSEDTALYYCARPYYRYDVGYFDVWGAGTTVTVSS
VL: DIVMTQAPKVLLVSAGDRVTISCKASQSVSNAVVWYQQKPGQSPKLLIFYASNRYTGVPDRFTGSGYGTDFTFSISTVQAEDLAVYFCQQDYSSPWTFGGGTKLEIK
[1]
  binding result: no binding
[2]
  Max cell cytotoxicity (%), ADCC on THP-1 cells: 17.9%
[3]
  ADCP (%) at 133.3 nM, macrophages and MV-4-11 cells: 14.8%
[4]
  FcγR stimulation (TNF-α, pg/mL): 543 pg/mL
  Fold change (Compared to isotype): 17.2 fold
[5]
  binding result: no binding (tested: up to 66.67 nM)
[6]
  EC50: 1.99 nM
  Max MFI: 48200 MFI

B7: h8-B3-F6-H8 (antibody, V domains shown)
VH: EVQLVESGGGLVQPGGSLRLSCAASGFDFSRYWMSWVRQAPGKGLVWIGEINPESSAINYAPSLKDRFTISRDNAKNTLYLQMNSLRAEDTAVYYCATSMTMDYWGQGTLVTVSS
VL: DIQMTQSPSSLSASVGDRVTITCKASQDIKSYLSWYQQKPGKAPKTLIYYATSLAGGVPSRFSGSGSGTDYTLTISSLQPEDFATYYCLQHGESPYTFGGGTKLEIK
notes: humanized antibody of ch8-B3-F6-H8; also called humanized 8-B3-F6-H8
[8]
  binding result: binds

B8: h2-H1-D7-E5-D5 (antibody, V domains shown)
VH: EVQLVESGGGLVQPGGSLRLSCAASGFTFSSFGMHWVRQAPGKGLEWVAYISSGSSSIYYADTVKGRFTISRDNAKNSLYLQMNSLRAEDTAVYYCARGTGTGAMDYWGQGTLVTVSS
VL: DIQMTQSPSSLSASVGDRVTITCRTSQDISNYLNWYQQKPGKAPKLLIYYTSKLHSGVPSRFSGSGSGTDFTFTISSLQPEDIATYFCQQGNTLPWTFGGGTKLEIK
notes: humanized antibody of ch2-H1-D7-E5-D5; also called humanized 2-H1-D7-E5-D5
[8]
  binding result: binds
